{
  "source": "paper PMC7464691",
  "about": "“Modulation of Amyloidogenic Peptide Aggregation by Photoactivatable CO-Releasing Ruthenium(II) Complexes” (Pharmaceuticals, 2020)",
  "biological_target": "the molecule itself",
  "test": "ESI-MS; peptide 100 uM in 10 mM borate buffer pH 9, incubated with compound 2 (1:10) for 0 h (UV-irradiated) or 24 h (not irradiated), diluted in 15 mM ammonium acetate",
  "data": [
    {"protein": "Ac-VEAKFINYVKNCFR-NH2 (nucleophosmin 1 (NPM1), helix H2 of the C-terminal domain, residues 264-277; By ESI-MS the peptide is present as a monomer and as a disulfide-bridged dimer; also called NMP1_(264–277); NPM1_(264–277)(M); source: synthetic peptide (SPPS), treated with HFIP, purified by RP-HPLC)", "note": "[nucleophosmin 1 (NPM1) 264-277, second helix (H2) of the C-terminal domain]", "values": [
      {"measurement": "stoichiometry N", "result": 2}
    ]}
  ]
}
